Experimental data reported in US20080311034A1 (published 2008).
One block for each binder: values may come before it.

Columns and labels:
[1] = target: T1, recombinant human His-tagged FcγRIIIa (extracellular domain made at Centocor) (human, UniProt P08637 17-208); assay: ELISA, His-tagged FcγRIIIa captured on HisGrab plate
T1 construct: extracellular domain; also called CD16a; recombinant, soluble, human FcγRIIIa
Method: FcγRIIIa (CD16a) ELISA—A human FcγRIIIa binding assay was done in ELISA format similar to the assay for FcγRI above. 50 μl of a 2 μg/ml solution of recombinant human His-tagged FcγRIIIa (extracellular domain made at Centocor) in ELISA buffer (PBS, 4 mg/ml BSA, 0.01% Tween-20) was added to each well of HisGrab 96 well plates (Pierce #15142) (Powers G., Notebook 10378, 19-23). The plate was incubated for 3 hours at room temp. The plates were blocked with 200 μl of Starting Block (Pierce #15142) for 30 min, and then washed 3× with 300 μl of wash buffer (PBS, 0.01% Tween-20) on a plate washer. Serial dilutions of the CNTO 860 test samples were made in Starting Block buffer and 50 μl per well of each titration were added in duplicate to the FcγRIIIa-coated plates. The plates were incubated for 1 hour. The plates were washed 3× with 300 μl of wash buffer on a plate washer. 50 μl of a 1:10,000 dilution of HRP-labeled goat F(ab′)2 anti-human IgG F(ab′)2 (Jackson Immunoresearch # 109-036-097) in Starting Block buffer was added to each well. The plates were incubated for 30 minutes. The plates were washed 3× with 300 μl of wash buffer on the plate washer. 50 μl per well TMB substrate (RDI #RDI-TMBSU-1L) was added to each well and developed for 3-5 minutes. The reaction was stopped by adding 100 μl […] sulfuric acid. The plates were read at OD450 on an Envision plate reader. Antibody concentration vs OD450 values were graphed for each CNTO 860 variant and the antibody concentration needed to achieve an OD450 reading of 0.14 established by interpolation within each data curve.

[2] = target: FcγRIIIa on NK cells of human PBMC (human, UniProt P08637 17-254); assay: cell-based or functional assay
[3] = target: T2, recombinant human His-tagged FcγRIIa (R&D Systems #1330-CD-050) (human, UniProt P12318 36-218, limits assumed); assay: AlphaScreen, His-tagged FcγRIIa on nickel acceptor beads
T2 construct: Bought; also called CD32a; recombinant, soluble, human FcγRIIa
T2 sequence (looked up): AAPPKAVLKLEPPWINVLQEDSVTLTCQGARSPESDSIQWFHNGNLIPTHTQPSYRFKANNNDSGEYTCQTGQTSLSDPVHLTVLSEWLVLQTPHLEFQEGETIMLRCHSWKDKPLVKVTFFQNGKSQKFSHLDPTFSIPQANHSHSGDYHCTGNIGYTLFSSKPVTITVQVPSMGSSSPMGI
Method: (§1) FcγRIIa (CD32a) AlphaScreen—Nickel acceptor beads (Perkin Elmer #6760619C) were diluted 1:50 in assay buffer (PBS, pH 7.4, 4 mg/ml BSA, 0.01% Tween-20), and 27.5 μl were added to each well of a Nunc V-bottom polypropylene plate (VWR # 62409-108) (Powers G., Notebook 9006, pp. 169-175, 182-185). A 2.0 μg/ml solution of recombinant human His-tagged FcγRIIa (R&D Systems #1330-CD-050) was prepared in assay buffer and 27.5 μl added to each well of a separate Nunc V bottom polypropylene plate. Titrations of test Abs were prepared in the Nunc V bottom polypropylene plate starting at 30 μg/ml. A 2 μg/ml solution of biotinylated goat F(ab′)₂ anti-human IgG F(ab′)₂ (Jackson Immunoresearch #109-066-097) was prepared in assay buffer and 27.5 μl added to each well of another Nunc V bottom polypropylene plate. A 1:50 dilution of streptavidin donor beads (PerkinElmer # 6760002) was prepared in assay buffer and 27.5 μl added to each well of another Nunc V bottom polypropylene plate. A volume of 5 μl of each reagent was added to the corresponding quadrants of a low-volume, non-binding white 384-well plate (Corning # 3673) in the following order: acceptor beads, FcγRIIa, test Ab, biotinylated anti-human IgG F(ab′)₂, and streptavidin donor beads. The plates were incubated for 30 minutes with shaking and the O.D.s determined using an Envision plate reader.

[4] = target: T3, recombinant human FcγRIIb (R&D Systems #1875-CD-050) (human, UniProt P31994 46-217, limits assumed); assay: AlphaScreen, FcγRIIb on nickel acceptor beads
T3 construct: Bought; also called CD32b; recombinant, soluble, human FcγRIIb
T3 sequence (looked up): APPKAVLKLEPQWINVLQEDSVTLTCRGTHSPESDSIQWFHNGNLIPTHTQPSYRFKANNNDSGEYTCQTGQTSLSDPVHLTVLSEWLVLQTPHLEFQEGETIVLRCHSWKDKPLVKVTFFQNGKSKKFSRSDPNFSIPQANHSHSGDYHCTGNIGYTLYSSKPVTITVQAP
Method: as §1
FcγRIIb (CD32b) AlphaScreen—The assay was performed as described above for FcγRIIa except that FcγRIIa was replaced with FcγRIIb (R&D Systems #1875-CD-050).

Sequence of FcγRIIIa on NK cells of human PBMC (P08637 17-254): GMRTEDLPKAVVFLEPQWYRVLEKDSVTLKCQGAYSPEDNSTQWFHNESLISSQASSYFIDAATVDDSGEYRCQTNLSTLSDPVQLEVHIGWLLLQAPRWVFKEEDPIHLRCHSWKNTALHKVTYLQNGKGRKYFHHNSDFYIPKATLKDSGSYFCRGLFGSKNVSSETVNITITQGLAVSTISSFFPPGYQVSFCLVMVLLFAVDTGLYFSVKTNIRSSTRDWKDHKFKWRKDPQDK
T1 sequence (P08637 17-208): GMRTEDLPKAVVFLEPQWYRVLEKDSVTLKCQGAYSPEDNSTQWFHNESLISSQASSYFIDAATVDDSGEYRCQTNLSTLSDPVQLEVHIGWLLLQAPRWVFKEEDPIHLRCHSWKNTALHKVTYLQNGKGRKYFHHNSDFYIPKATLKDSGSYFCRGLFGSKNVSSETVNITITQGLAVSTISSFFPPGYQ

concentration (ng/ml) required for an O.D. value of 0.14 [1]: 120 ng/mL
EC25 (ng/ml), ADCC of HCT116 cells by human PBMC [2]: 0.2 ng/mL
concentration (ng/ml) required for a set O.D. signal [3]: 60 ng/mL
concentration (ng/ml) required for an O.D. value of 200,000 [4]: 20 ng/mL
B1: YB2/0-CNTO 860 S239D/I332E (antibody, human IgG1, kappa)
heavy: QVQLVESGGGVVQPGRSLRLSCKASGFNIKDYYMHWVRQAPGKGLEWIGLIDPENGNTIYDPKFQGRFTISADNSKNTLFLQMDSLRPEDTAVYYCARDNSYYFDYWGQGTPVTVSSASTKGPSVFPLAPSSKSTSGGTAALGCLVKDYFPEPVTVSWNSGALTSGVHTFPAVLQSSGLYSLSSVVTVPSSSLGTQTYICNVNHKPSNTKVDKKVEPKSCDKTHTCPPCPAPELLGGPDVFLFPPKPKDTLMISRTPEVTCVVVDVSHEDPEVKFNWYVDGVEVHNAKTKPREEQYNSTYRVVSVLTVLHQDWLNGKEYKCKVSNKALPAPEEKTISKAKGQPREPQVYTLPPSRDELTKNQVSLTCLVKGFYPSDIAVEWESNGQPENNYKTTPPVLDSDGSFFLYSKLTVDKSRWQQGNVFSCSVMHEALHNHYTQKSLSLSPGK
light: DIQMTQSPSSLSASVGDRVTITCKASQDIRKYLNWYQQKPGKAPKLLIYYATSLADGVPSRFSGSGSGTDYTFTISSLQPEDIATYYCLQHGESPYTFGQGTKLEITRTVAAPSVFIFPPSDEQLKSGTASVVCLLNNFYPREAKVQWKVDNALQSGNSQESVTEQDSKDSTYSLSSTLTLSKADYEKHKVYACEVTHQGLSSPVTKSFNRGEC
modifications: N-linked glycan at heavy chain Asn297 (YB2/0-type, low fucose); not carried by the letters
notes: IgG1/kappa Fc variant; stably expressed in YB2/0 cells (p4179/p2402); EU numbering; also called S239D/I332E (YB2/0 cell-derived); copies: 2 + 2

concentration (ng/ml) required for an O.D. value of 0.14 [1]: 165 ng/mL
EC25 (ng/ml), ADCC of HCT116 cells by human PBMC [2]: 0.12 ng/mL
concentration (ng/ml) required for a set O.D. signal [3]: 90 ng/mL
concentration (ng/ml) required for an O.D. value of 200,000 [4]: 60 ng/mL
B2: YB2/0-CNTO 860 V264I/I332E (antibody, human IgG1, kappa)
heavy: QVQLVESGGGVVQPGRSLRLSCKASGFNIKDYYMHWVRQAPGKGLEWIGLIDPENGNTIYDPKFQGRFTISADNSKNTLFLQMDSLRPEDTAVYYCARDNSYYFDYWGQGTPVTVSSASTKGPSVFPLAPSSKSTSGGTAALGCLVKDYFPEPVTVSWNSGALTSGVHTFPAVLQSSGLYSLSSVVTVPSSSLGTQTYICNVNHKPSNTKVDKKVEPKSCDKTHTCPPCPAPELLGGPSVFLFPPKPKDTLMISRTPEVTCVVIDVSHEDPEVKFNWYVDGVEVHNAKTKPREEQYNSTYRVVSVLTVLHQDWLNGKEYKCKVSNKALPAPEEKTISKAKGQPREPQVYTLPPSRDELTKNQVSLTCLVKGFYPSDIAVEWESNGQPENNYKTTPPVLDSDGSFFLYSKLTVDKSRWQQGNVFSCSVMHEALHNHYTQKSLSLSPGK
light: B1 light
modifications: N-linked glycan at heavy chain Asn297 (YB2/0-type, low fucose); not carried by the letters
notes: IgG1/kappa Fc variant; stably expressed in YB2/0 cells (p4180/p2402); EU numbering; also called V264I/I332E (YB2/0 cell-derived); copies: 2 + 2
